Experimental data published in patent publication US20160130333A1 (published 2016).

Target: histones
Test: ELISA

Row | Binder | Kd
1 | mIMMU-H4 (antibody, V domains shown) VH: QVQLQQSGAELVRPGASVKLSCTASGFNIKDDYLHWVKQRPEQGLEWIGWIDPENGDTEYASKFQGKATITADTSSNTAYLQLSSLTSEDTAVYYCSSPLVHLRTFAYWGQGTLVTVS VL: DIQLTQSPASLAVSLGQRATISCRASESVDSYDNSLHWFQQKPGQPPKLLIYLASNLESGVPARFSGSGSRTDFTLTIDPVEADDAATYYCQQNNEDPWTFGGGTKLEIKR | 6.6 nM
2 | cIMMU-H4 (antibody, V domains shown) VH: QVQLQQSGAELVRPGASVKLSCTASGFNIKDDYLHWVKQRPEQGLEWIGWIDPENGDTEYASKFQGKATITADTSSNTAYLQLSSLTSEDTAVYYCSSPLVHLRTFAYWGQGTLVTVSA VL: DIQLTQSPASLAVSLGQRATISCRASESVDSYDNSLHWFQQKPGQPPKLLIYLASNLESGVPARFSGSGSRTDFTLTIDPVEADDAATYYCQQNNEDPWTFGGGTKLEIKR | 0.96 nM
